Values quoted from earlier work in article PMC10886550.

Tests used:
[1] = molecular target: DNA gyrase (Escherichia coli) (UniProt P0AES4)
[2] = molecular target: GyrB (Escherichia coli) (UniProt P0AES6)

UniProt P0AES4, sequence (P0AES4 2-875): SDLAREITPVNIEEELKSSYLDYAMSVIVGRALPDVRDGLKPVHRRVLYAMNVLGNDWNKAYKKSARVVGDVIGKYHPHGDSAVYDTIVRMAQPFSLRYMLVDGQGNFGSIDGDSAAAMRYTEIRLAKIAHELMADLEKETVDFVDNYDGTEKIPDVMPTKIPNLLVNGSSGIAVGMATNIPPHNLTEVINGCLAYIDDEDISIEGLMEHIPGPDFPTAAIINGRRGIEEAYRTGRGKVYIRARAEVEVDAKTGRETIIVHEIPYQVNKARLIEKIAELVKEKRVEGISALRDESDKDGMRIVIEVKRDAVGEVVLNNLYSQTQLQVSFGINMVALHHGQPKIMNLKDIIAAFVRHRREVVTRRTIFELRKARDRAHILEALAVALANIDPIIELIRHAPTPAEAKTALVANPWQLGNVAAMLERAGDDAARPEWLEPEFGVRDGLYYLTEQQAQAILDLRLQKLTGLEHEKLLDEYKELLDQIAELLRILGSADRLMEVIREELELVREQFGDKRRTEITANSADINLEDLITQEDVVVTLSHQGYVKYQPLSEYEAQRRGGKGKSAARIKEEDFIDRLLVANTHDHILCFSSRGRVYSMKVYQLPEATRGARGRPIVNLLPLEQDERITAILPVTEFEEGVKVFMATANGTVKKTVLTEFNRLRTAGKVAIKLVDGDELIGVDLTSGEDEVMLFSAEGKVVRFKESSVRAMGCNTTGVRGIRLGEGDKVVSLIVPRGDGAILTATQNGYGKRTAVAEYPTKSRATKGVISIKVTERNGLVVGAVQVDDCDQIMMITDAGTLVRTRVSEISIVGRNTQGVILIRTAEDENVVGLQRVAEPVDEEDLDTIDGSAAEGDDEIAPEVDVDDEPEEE

Kd [1] [µM] | Kd [2] [µM] | Substance
26 |  | GyrI peptide 33-48 (from UniProt P33012)
 | 0.35 | YacG (from UniProt P0A8H8)
